T1: human MIP-1-alpha (human, UniProt P10147 24-92, limits assumed)
T1 construct: also called hMIP-1-alpha
T1 sequence (looked up): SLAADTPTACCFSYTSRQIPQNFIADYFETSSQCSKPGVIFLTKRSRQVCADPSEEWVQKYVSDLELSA

T2: human GRO/MGSA (human, UniProt P09341 35-107)
T2 construct: also called hGRO/MGSA; GRO-alpha
T2 sequence (looked up): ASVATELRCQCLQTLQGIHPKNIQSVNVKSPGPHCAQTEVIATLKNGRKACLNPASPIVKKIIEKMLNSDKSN

T3: recombinant human MCP-2 (human, UniProt P80075 24-99)
T3 construct: also called rhMCP-2
T3 sequence (looked up): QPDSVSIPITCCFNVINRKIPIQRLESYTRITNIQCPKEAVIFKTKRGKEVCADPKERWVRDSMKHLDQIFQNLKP

T4: human RANTES (human, UniProt P13501 24-91)
T4 construct: also called hRANTES
T4 sequence (looked up): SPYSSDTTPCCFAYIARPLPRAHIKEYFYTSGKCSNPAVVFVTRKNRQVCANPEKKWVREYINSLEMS

B1: anti-MCP-1 mAb 3.15.1 (antibody, human IgG4, kappa, V domains shown)
VH: QVQLVQSGAEVKKPGASVQVSCKVSGDTLTELSMHWVRQAPGKGLEWMGGFDPEDGETIYARKFQGRVTMTEDTSTDTVYMELSSLRSEDTAVYFCATDSRGYSGYFDNWGQGTLVTVSS
VL: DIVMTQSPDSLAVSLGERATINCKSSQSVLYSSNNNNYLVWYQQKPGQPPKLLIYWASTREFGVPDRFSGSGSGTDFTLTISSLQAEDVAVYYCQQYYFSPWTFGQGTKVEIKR
B2: anti-MCP-1 mAb 3.16.1 (antibody, V domains shown)
VH: QVQLVQSGAEVKKPGASVKVSCKVSGYTLTDLSMHWVRQAPGKGLEWMGGFDPEDGETIYAQKFQGRVTMTEDTSSDTAYMELSSLRSEDTAVYYCATHEFWSGYFDYWGQGTLVTVSS
VL: DIVMTQSPDSLAVSLGERATINCKSSQSVLFSSNNKSYLTWYQQKPGQPPKLLIFWASIRESGVPDRISGSGSGTDLTLTISSLQAEDAAVYYCQQYYSSPWTFGQGTKVEIKR
B3: anti-MCP-1 mAb 4.7.1 (antibody, V domains shown)
VH: QVQLVQSGAEVKKPGASVKVSCKVSGYTLTELSMHWVRQAPGKGLEWMGGFDPEDGETIYAQKFQGRVTMTEDTSTDTAYMELSSLRSEDTAVYYCATDDFWSGYFDYWGQGTLVTVSS
VL: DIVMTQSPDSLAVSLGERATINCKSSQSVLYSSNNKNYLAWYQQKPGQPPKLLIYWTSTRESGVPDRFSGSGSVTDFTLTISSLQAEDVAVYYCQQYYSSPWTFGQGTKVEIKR
B4: anti-MCP-1 mAb 4.6.1 (antibody, V domains shown)
VH: QVQLVQSGAEVKKPGASVKVSCKVSGYTLTELSMHWVRQAPGKGLEWMGGFDPEDGETIYAQKFQGRVTMTEDTSTDTAYMELSSLRSEDTAVYYCATDDFWSGYFDYWGQGTLVTVSS
VL: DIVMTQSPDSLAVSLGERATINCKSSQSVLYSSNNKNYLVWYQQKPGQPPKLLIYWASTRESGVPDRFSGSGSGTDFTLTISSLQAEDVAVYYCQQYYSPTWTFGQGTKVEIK
B5: anti-MCP-1 mAb 4.5.1 (antibody, V domains shown)
VH: QVQLVQSGAEVKKPGASVKVSCKVSGYTLTELSMHWVRQAPGKGLEWMGGFDPEDGETIYAQKFQGRVTMTEDTSTDTAYMELSSLRSEDTAVYYCATDDFWSGYFDYWGQGTLVTVSS
VL: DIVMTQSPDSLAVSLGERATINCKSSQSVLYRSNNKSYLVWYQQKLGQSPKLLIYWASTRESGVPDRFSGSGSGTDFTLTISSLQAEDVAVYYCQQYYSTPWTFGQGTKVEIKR
B6: anti-MCP-1 mAb 4.8.1 (antibody, V domains shown)
VH: QVQLVQSGAEVKKPGASVKVSCKVSGYTLTELSMHWVRQAPGKGLEWMGGFDPEDGETIYAQKFQGRVTMTEDTSTDTAYMELSSLRTEDTAVYYCTTDDFWSGYFDYWGQGTLVTVSS
VL: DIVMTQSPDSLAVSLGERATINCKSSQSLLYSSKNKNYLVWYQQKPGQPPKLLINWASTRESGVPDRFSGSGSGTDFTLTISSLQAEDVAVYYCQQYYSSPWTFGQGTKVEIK
B7: anti-MCP-1 mAb 3.14.1 (antibody, V domains shown)
VH: EQSGPGLVKPSQTLSLTCAISGDSVSSNSAAWNWIRQSPSRGLEWLGRTYYRSKWYSDHAVSVRSRITIYPDTSKNQFSLQLNSVTPEDTAVYYCARDRISGTYVGMDVWGQGTTVTVSS
VL: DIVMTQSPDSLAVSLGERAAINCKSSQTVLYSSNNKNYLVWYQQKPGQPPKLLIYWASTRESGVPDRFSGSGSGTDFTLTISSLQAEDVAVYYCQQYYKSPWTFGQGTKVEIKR

What was measured:
[1] = target: T5, human monocyte chemo-attractant protein-1 (MCP-1) (human, UniProt P13500 24-99); test: ELISA, hybridoma supernatant on coated MCP-1
T5 construct: 76-residue recombinant protein from E. coli, bought (PeproTech); also called hMCP-1(MCAF); human MCP-1
Method: Selection of candidate antibodies for ELISA. After 14 days of culture, hybridoma supernatants were screened for MCP-1-specific monoclonal antibodies. The ELISA plates (Fisher, Cat. No. 12-565-136) were coated with 50 μl/well of MCP-1 (2 μg/mL) in Coating Buffer (0.1 M Carbonate Buffer, pH 9.6, NaHCO₃8.4 g/L), then incubated at 4° C. overnight. After incubation, the plates were washed with Washing Buffer (0.05% Tween 20 in PBS) three times. 200 μl/well Blocking Buffer (0.5% BSA, 0.1% Tween 20, 0.01% Thimerosal in 1× PBS) were added and the plates incubated at room temperature for 1 hour. After incubation, the plates were washed with Washing Buffer three times. 50 μL/well of hybridoma supernatants, and positive and negative controls were added and the plates incubated at room temperature for 2 hours.
The positive control used throughout was XMG2 MCP-1 Group 1, footpad N160-7 and the negative control was XMG2 KLH Group 1, footpad L627-6. After incubation, the plates were washed three times with Washing Buffer. […] In the secondary screen, three sets of samples (positives in first screening) were screened, one set for hIgG detection, one set for hKappa detection, and one set for hlambda detection. After incubation, the plates were washed three times with Washing Buffer. 100 μL/well of TMB (BioFX Lab. Cat. #TMSK-0100-01) were added and the plates allowed to develop for about 10 minutes (until negative control wells barely started to show color), then 50 μL/well stop solution (TMB Stop Solution (BioFX Lab. Cat. #STPR-0100-01) were added and the plates read on an ELISA plate reader at wavelength 450 nm. The OD readings from the positive wells are presented in Table 9.

[2] = target: T5, human monocyte chemo-attractant …; test: cell-based or functional assay
[3] = target: T5, human monocyte chemo-attractant …; test: ELISA, coated antigen
Method: (§1) Determining cross-reactivity of anti-MCP-1 antibodies with other chemokines. ELISA plates (Fisher Cat. No. 12-565-136) were coated with 50 μl/well of MCP-1, MCP-2, MCP-3, MCP-4, RANTES, GRO-alpha, MIP-1 alpha, eotaxin, rat MCP-1 and mouse JE (2 μg/ml) in coating buffer (0.1 M carbonate buffer, pH 9.6, NaHCO₃ 8.4 g/L, then incubated at 4° C. overnight. After incubation, the plates were washed with washing buffer (0.05% Tween 20 in PBS) three times. 200 μL/well blocking buffer (0.5% BSA, 0.1% Tween 20, 0.01% Thimerosal in 1×PBS) were added and the plates incubated at room temperature for 1 hour. After incubation, the plates were washed with washing buffer three times. 50 μL/well of hybridoma supernatants, and positive and negative controls (positive control was anti-MCP-1 antibody purchased from R&D Sciences, and negative control was an antibody to Keyhole Limpet Hemocyanin produced at Abgenix) were added and the plates incubated at room temperature for 2 hours. After incubation, the plates were washed three times with washing buffer. […] After incubation, the plates were washed three times with washing buffer and 100 μL/well of TMB (BioFX Lab. Cat. #TMSK-0 100-01) was added and the plates allowed to develop for about 10 minutes.

[4] = target: T6, recombinant human MCP-3 (human, UniProt P80098 24-99); test: ELISA, coated antigen
T6 construct: also called rhMCP-3
Method: as §1

[5] = target: T1, human MIP-1-alpha; test: ELISA, coated antigen
Method: as §1

[6] = target: T2, human GRO/MGSA; test: ELISA, coated antigen
Method: as §1

[7] = target: T7, recombinant human MCP-4 (human, UniProt Q99616 24-98, limits assumed); test: ELISA, coated antigen
T7 construct: also called rhMCP-4
Method: as §1

[8] = target: T8, recombinant mouse JE/MCP-1 (mouse, UniProt P10148 24-148); test: ELISA, coated antigen
T8 construct: also called rmJE/MCP-1
Method: as §1

[9] = target: rat MCP-1 (rat, UniProt P14844 24-148); test: ELISA, coated antigen
Method: as §1

[10] = target: T3, recombinant human MCP-2; test: ELISA, coated antigen
Method: as §1

[11] = target: T4, human RANTES; test: ELISA, coated antigen
Method: as §1

[12] = target: T9, human eotaxin (human, UniProt P51671 24-97); test: ELISA, coated antigen
T9 construct: also called hEotaxin
Method: as §1

T8 sequence (P10148 24-148 limits assumed): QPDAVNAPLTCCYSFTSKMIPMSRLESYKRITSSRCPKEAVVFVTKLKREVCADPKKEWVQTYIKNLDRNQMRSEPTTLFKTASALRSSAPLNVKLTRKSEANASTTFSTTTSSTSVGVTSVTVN
T7 sequence (Q99616 24-98 limits assumed): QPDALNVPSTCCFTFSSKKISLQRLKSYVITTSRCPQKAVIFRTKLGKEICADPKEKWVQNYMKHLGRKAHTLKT
T6 sequence (P80098 24-99 limits assumed): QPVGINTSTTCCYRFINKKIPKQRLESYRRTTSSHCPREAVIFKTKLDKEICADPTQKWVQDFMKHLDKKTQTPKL
T9 sequence (P51671 24-97 limits assumed): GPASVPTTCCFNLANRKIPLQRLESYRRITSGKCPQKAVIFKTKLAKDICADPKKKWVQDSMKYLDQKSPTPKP
T5 sequence (P13500 24-99): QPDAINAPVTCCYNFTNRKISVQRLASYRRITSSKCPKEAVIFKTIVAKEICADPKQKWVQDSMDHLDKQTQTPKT
Sequence of rat MCP-1 (P14844 24-148 limits assumed): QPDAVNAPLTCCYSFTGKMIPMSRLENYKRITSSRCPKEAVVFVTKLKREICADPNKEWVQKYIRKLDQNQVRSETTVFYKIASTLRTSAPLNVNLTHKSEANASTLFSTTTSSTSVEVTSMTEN

Binder | ELISA OD-MCP-1 [1] [OD450] | IC50 Ca++ Flux [2] [µg/mL] | IC50 Chemotaxis [2] [µg/mL] | ELISA OD [3] [OD450] | ELISA OD [4] [OD450] | ELISA OD [5] [OD450] | ELISA OD [6] [OD450] | ELISA OD [7] [OD450] | ELISA OD [8] [OD450] | ELISA OD [9] [OD450] | ELISA OD [10] [OD450] | ELISA OD [11] [OD450] | ELISA OD [12] [OD450]
B1 | 4 | 0.12 | 0.89 | 0.948 | 0.046 | 0.045 | 0.044 | 0.051 | 0.041 | 0.05 | 0.043 | 0.049 | 0.045
B2 | 3.92 | 0.16 | 0.4 | 0.633 | 0.043 | 0.043 | 0.043 | 0.043 | 0.042 | 0.046 | 0.049 | 0.042 | 0.043
B3 | 3.84 | 0.39 | 0.45 | 0.744 | 0.046 | 0.046 | 0.046 | 0.044 | 0.042 | 0.062 | 0.042 | 0.046 | 0.042
B4 | 3.51 | 0.31 | 0.4 | 0.686 | 0.05 | 0.055 | 0.046 | 0.047 | 0.049 | 0.05 | 0.047 | 0.053 | 0.049
B5 | 3.38 | 0.27 | 0.75 | 0.957 | 0.046 | 0.046 | 0.045 | 0.046 | 0.049 | 0.055 | 0.042 | 0.049 | 0.041
B6 | 4 | 0.22 | 0.29 | 1.14 | 0.043 | 0.041 | 0.042 | 0.039 | 0.042 | 0.091 | 0.041 | 0.044 | 0.043
B7 | 4 | 1.3 | 1.4 | 0.549 | 0.05 | 0.046 | 0.046 | 0.045 | 0.044 | 0.046 | 0.045 | 0.045 | 0.043
